Measured values published in patent publication US20110206616A1.

Biological target: SNAP 25 (endogenous, rat neuronal cells) (rat) (UniProt P60881)
Assay: cell-based or functional assay

Sequence of UniProt P60881 (P60881 whole entry): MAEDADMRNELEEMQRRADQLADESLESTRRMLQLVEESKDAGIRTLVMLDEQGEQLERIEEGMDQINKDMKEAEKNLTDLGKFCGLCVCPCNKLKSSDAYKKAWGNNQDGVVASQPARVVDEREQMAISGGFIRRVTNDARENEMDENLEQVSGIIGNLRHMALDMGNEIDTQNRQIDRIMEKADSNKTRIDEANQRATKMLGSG

BoNT/Aad^ek, AcTEV- and enterokinase-processed disulfide-bonded LC-HC heterodimer (from UniProt P0DPI1 2-449; P0DPI0 449-1296)
cleavage of intracellular SNAP 25 (none detectable at the concentration tested): 500 nM
